Laboratory results from patent publication US20050002904A1, “Uses of vascular endothelial growth factor and type I collagen inducible protein (VCIP)” (priority 2003, published 2005).

Target: αvβ3 and α5β1 integrins presented on adjacent cells
Experiment: cell-based or functional assay

| % cell aggregates, HEK cells stably expressing pLNCX2-VCIP-RGD (WT), no substance [%] | % cell aggregates, HEK cells stably expressing pLNCX2-VCIP-RGE (MT), no substance [%] | % cell aggregates of WT cells with … 10 nM [%] | % cell aggregates of WT cells with … 30 nM [%] | % cell aggregates of WT cells with … 50 nM [%] | Binder |
| --- | --- | --- | --- | --- | --- |
| 94 |  |  |  |  | wild-type VCIP/PAP2b, HA-tagged, expressed from pLNCX2-VCIP-RGD, O14495 1-311 (protein) YPYDVPDYAYPYDVPDYAYPYDVPDYAMQNYKYDKAIVPESKNGGSPALNNNPRRSGSKRVLLICLDLFCLFMAGLPFLIIETSTIKPYHRGFYCNDESIKYPLKTGETINDAVLCAVGIVIAILAIITGEFYRIYYLKKSRSTIQNPYVAALYKQVGCFLFGCAISQSFTDIAKVSIGRLRPHFLSVCNPDFSQINCSEGYIQNYRCRGDDSKVQEARKSFFSGHASFSMYTMLYLVLYLQARFTWRGARLLRPLLQFTLIMMAFYTGLSRVSDHKHHPSDVLAGFAQGALVACCIVFFVSDLFKTKTTLSLPAPAIRKEILSPVDIIDRNNHHNMM |
|  | 0 |  |  |  | mutant VCIP/PAP2b-RGE, HA-tagged, expressed from pLNCX2-VCIP-RGE, O14495 1-311 (protein) YPYDVPDYAYPYDVPDYAYPYDVPDYAMQNYKYDKAIVPESKNGGSPALNNNPRRSGSKRVLLICLDLFCLFMAGLPFLIIETSTIKPYHRGFYCNDESIKYPLKTGETINDAVLCAVGIVIAILAIITGEFYRIYYLKKSRSTIQNPYVAALYKQVGCFLFGCAISQSFTDIAKVSIGRLRPHFLSVCNPDFSQINCSEGYIQNYRCRGEDSKVQEARKSFFSGHASFSMYTMLYLVLYLQARFTWRGARLLRPLLQFTLIMMAFYTGLSRVSDHKHHPSDVLAGFAQGALVACCIVFFVSDLFKTKTTLSLPAPAIRKEILSPVDIIDRNNHHNMM |
|  |  | 92 | 89 | 90 | NYRCRADDSK [mutant peptide …] |
|  |  | 67 | 46 | 28 | NYRCRGDDSK [peptide …] |
